Laboratory results: patent US20230240988A1, “FLUID GEL COMPOSITIONS” (The University of Birmingham, priority 2020, published 2023)

Legend:
[1] = Release assay of active agents from PEG-DA fluid gel (trans-well, UV/Vis); format: physicochemical; conditions: 3% v/v PEG-DA fluid gel (500 rpm), PBS 37° C., 5 hrs
Experimental: • Active amounts: […] • Standard concentrations of active in PBS were prepared. • Standards were pipetted into a quartz cuvette (1 mm pathlength). • […] spectroscopy was used to measure absorbance between 200 and 700 nm wavelength. • Curves were plotted and used to determine standard curves which were used to determine concentrations. • 0.5 ml PBS was added to the well of a 24 well plate. • The PBS was incubated at 37° C. to equilibrate. 0.1 ml of the fluid gel containing active was placed in a trans-well insert. • The trans-well insert was placed into a well containing PBS. • After a given time period the trans-well insert was removed and placed in a fresh well of PBS. • The release media was then removed and analysed using […] spectroscopy. Concentrations were derived from the standard curves and cumulative release plotted as a function of time.

fibrin gel = experiment: Matrix breakdown assay; format: biochemical; conditions: 60° C.; images at various timepoints
Experimental: • Add proteinase K (10 mg) to PBS to make a total volume of 1 ml. • Mix well on a vortex mixer until dissolved.
• Add 0.9 ml of 3% v/v PEG-DA fluid gel prepared according to Example 5.3 to an Eppendorf. • To each gel add 0.1 ml of active in PBS. • Mix well using a vortex mixer. • Refrigerate for 24 hours before testing.
0.5 ml of fibrin gel (8.5 mg/ml) was formed in the wells of a 24 well plate. • 0.5 ml of PBS was added to each well. • 0.1 ml of fluid gel containing active was added to a trans-well insert and placed above the fibrin gel. • Samples were incubated at 60° C. to activate the proteinase K. • Images were taken at various timepoints and compared to (a) the control wells containing only fibrin gel+PBS; and (b) wells containing fibrin gel+proteinase k (no fluid gel carrier).

B1: Proteinase K: extracellular matrix remodelling agent, proteinase (protein, UniProt P06873 106-384, looked up)
Proteinase K: AAQTNAPWGLARISSTSPGTSTYYYDESAGQGSCVYVIDTGIEASHPEFEGRAQMVKTYYYSSRDGNGHGTHCAGTVGSRTYGVAKKTQLFGVKVLDDNGSGQYSTIIAGMDFVASDKNNRNCPKGVVASLSLGGGYSSSVNSAAARLQSSGVMVAVAAGNNNADARNYSPASEPSVCTVGASDRYDRRSSFSNYGSVLDIFGPGTSILSTWIGGSTRSISGTSMATPHVAGLAAYLMTLGKTTAASACRYIADTANKGDLSNIPFGTVNLLAYNNYQA
Question: What does the source list for B1?
Answer: release of active agent from fluid gel [1]: able to release; fibrin gel break down (fibrin gel): faster
